Positions count from the first letter of the chain named. Names and notes keep the numbering of the source.
B1: Fab m18 F99A (HCDR3) (Fab, V domains shown)
VH: VQLLESGPGVVKPSETLSLTCTVSGASVNNYYWTWVRQPPGKGLEWIGNVYDSGDTNYNPSLSSRLSLSMDTSKNQFSLRLSSVTAADTATYYCARYHRHAIRGPLSFDYWGRGTLVTVSS
VL: LQMTQSPSFLSASVGDRVSITCRASQDIQKFLAWYQLTPGDAPKLLMYSASTLQSGVPSRFSGSGSGTEFTLTISGLQPEDFATYYCQHLKRYPYTFGQGTKLEIS
B2: Fab m18 (wild type) (Fab, V domains shown)
VH: B1 VH with A101F
VL: B1 VL
B3: Fab m18 K31A (LCDR1) (Fab, V domains shown)
VH: B1 VH with A101F
VL: B1 VL with K30A
B4: Fab m18 S52A (LCDR2) (Fab, V domains shown)
VH: B1 VH with A101F
VL: B1 VL with S51A
B5: Fab m18 F99Y (HCDR3) (Fab, V domains shown)
VH: B1 VH with A101Y
VL: B1 VL
B6: Fab m18 I100A (HCDR3) (Fab, V domains shown)
VH: B1 VH with A101F, I102A
VL: B1 VL
B7: Fab m18 S54A (HCDR2) (Fab, V domains shown)
VH: B1 VH with S53A, A101F
VL: B1 VL
B8: Fab m18 D56A (HCDR2) (Fab, V domains shown)
VH: B1 VH with D55A, A101F
VL: B1 VL
B9: Fab m18 T57A (HCDR2) (Fab, V domains shown)
VH: B1 VH with T56A, A101F
VL: B1 VL
B10: Fab m18 P61A (HCDR2) (Fab, V domains shown)
VH: B1 VH with P60A, A101F
VL: B1 VL
B11: Fab m18 S62A (HCDR2) (Fab, V domains shown)
VH: B1 VH with S61A, A101F
VL: B1 VL
B12: Fab m18 S64A (HCDR2) (Fab, V domains shown)
VH: B1 VH with S63A, A101F
VL: B1 VL
B13: Fab m18 S65A (HCDR2) (Fab, V domains shown)
VH: B1 VH with S64A, A101F
VL: B1 VL
B14: Fab m18 H96A (HCDR3) (Fab, V domains shown)
VH: B1 VH with H98A, A101F
VL: B1 VL
B15: Fab m18 R100aA (HCDR3) (Fab, V domains shown)
VH: B1 VH with A101F, R103A
VL: B1 VL

These binders were tested against T1, HIV-1 YU-2 gp120 (HIV-1 (YU-2), UniProt P35961) (assay: SPR).
B1: binds.

Target: T1, HIV-1 YU-2 gp120
Experiment: SPR
Remark: another data set of the same source
In the case of B2, the Kd is reported as 1.4 nM, the koff is reported as 9.8e-05 s⁻¹ and the kon is reported as 69000 ± 0.3 M⁻¹ s⁻¹. Binder B3 has a Kd of 3.1 nM, a koff of 8.9e-05 s⁻¹ and a kon of 29000 ± 0.4 M⁻¹ s⁻¹. B4 gave a Kd of 4.7 nM, a koff of 8.1e-05 s⁻¹ and a kon of 17000 ± 0.9 M⁻¹ s⁻¹. In the case of B1, the Kd is reported as 5.9 nM, the koff is reported as 0.00026 ± 1.5 s⁻¹ and the kon is reported as 45000 ± 2.5 M⁻¹ s⁻¹. B5 showed a Kd of 1.1 nM, a koff of 0.00011 ± 0.9 s⁻¹ and a kon of 94000 ± 2.5 M⁻¹ s⁻¹. Binder B6 has a Kd of 13.1 nM, a koff of 0.00036 ± 1.4 s⁻¹ and a kon of 27000 ± 1.3 M⁻¹ s⁻¹. In the case of B7, the Kd is reported as 56.4 nM, the koff is reported as 0.0022 ± 0.7 s⁻¹ and the kon is reported as 39000 ± 0.5 M⁻¹ s⁻¹. B8 was tested, and the Kd was 26.2 nM, the koff was 0.00061 ± 4.5 s⁻¹ and the kon was 25000 ± 0.6 M⁻¹ s⁻¹. B9 was tested, and the Kd was 2.5 nM, the koff was 0.00021 ± 0.4 s⁻¹ and the kon was 84000 ± 2 M⁻¹ s⁻¹. B10 gave a Kd of 19.3 nM, a koff of 0.00063 ± 1 s⁻¹ and a kon of 33000 ± 1 M⁻¹ s⁻¹. Work on B11 yielded a Kd of 44.2 nM, a koff of 0.0016 ± 0.4 s⁻¹ and a kon of 35000 ± 0.9 M⁻¹ s⁻¹. Binder B12 has a Kd of 40 nM, a koff of 0.00086 ± 5.9 s⁻¹ and a kon of 21000 ± 0.7 M⁻¹ s⁻¹. In the case of B13, the Kd is reported as 39.1 nM, the koff is reported as 0.0014 ± 0.2 s⁻¹ and the kon is reported as 36000 ± 1.2 M⁻¹ s⁻¹. Work on B14 yielded a Kd of 11.7 nM, a koff of 0.0011 ± 0.6 s⁻¹ and a kon of 93000 ± 2.9 M⁻¹ s⁻¹. With B15 the Kd was 2.3 nM, the koff was 7.6e-05 s⁻¹ and the kon was 34000 ± 0.9 M⁻¹ s⁻¹.

These binders were tested against T2, HIV-1 HXBc2 gp120 (HIV-1 (HXBc2), UniProt P04578) (assay: SPR).
Binder B2 has a Kd of 4.3 nM, a koff of 0.00022 ± 0.9 s⁻¹ and a kon of 52000 ± 2.2 M⁻¹ s⁻¹. In the case of B3, the Kd is reported as 18.7 nM, the koff is reported as 0.00031 ± 1.1 s⁻¹ and the kon is reported as 17000 ± 0.5 M⁻¹ s⁻¹. B4 showed a Kd of 0.6 nM, a koff of 2e-05 s⁻¹ and a kon of 35000 ± 2.1 M⁻¹ s⁻¹. With B1 the Kd was 1.3 nM, the koff was 0.00013 ± 0.1 s⁻¹ and the kon was 100000 ± 0.02 M⁻¹ s⁻¹. With B5 the Kd was 0.9 nM, the koff was 9.2e-05 s⁻¹ and the kon was 100000 ± 0.03 M⁻¹ s⁻¹. B6 was tested, and the Kd was 2.8 nM, the koff was 4.6e-05 s⁻¹ and the kon was 17000 ± 0.07 M⁻¹ s⁻¹.

Target: T1, HIV-1 YU-2 gp120
Experiment: SPR
Remark: another data set of the same source
B2 showed an IC50 of 33 ± 3.6 nM. For B3, the IC50 was > 500 nM. In the case of B4, the IC50 is reported as ≥ 500 nM. With B1 the IC50 was > 500 nM. B5 showed an IC50 of 53.7 ± 1.5 nM. For B6, the IC50 was > 500 nM. In the case of B7, the IC50 is reported as > 1000 nM. With B8 the IC50 was > 1000 nM. B9 showed an IC50 of 16.8 ± 3.8 nM. For B10, the IC50 was > 1000 nM. In the case of B11, the IC50 is reported as > 1000 nM. For B12, the IC50 was > 1000 nM. B13 was tested, and the IC50 was > 1000 nM. B14 was tested, and the IC50 was > 500 nM. In the case of B15, the IC50 is reported as > 500 nM.

Target: T2, HIV-1 HXBc2 gp120
Experiment: SPR
Remark: another data set of the same source
Binder B2 has an IC50 of 36.1 ± 12.9 nM. In the case of B3, the IC50 is reported as > 500 nM. B4 was tested, and the IC50 was > 360 nM. Work on B1 yielded an IC50 of 58.2 ± 4.3 nM. B5 was tested, and the IC50 was 62.8 ± 12.3 nM. In the case of B6, the IC50 is reported as > 500 nM.

Target: T1, HIV-1 YU-2 gp120
Experiment: SPR
Remark: another data set of the same source
B2 was tested, and the IC50 was 36 ± 1.2 nM. With B3 the IC50 was > 500 nM. In the case of B4, the IC50 is reported as > 500 nM. With B1 the IC50 was > 500 nM. B5 gave an IC50 of 75.3 ± 20.6 nM. In the case of B6, the IC50 is reported as > 500 nM. In the case of B7, the IC50 is reported as > 1000 nM. With B8 the IC50 was > 1000 nM. In the case of B9, the IC50 is reported as 33.1 ± 8 nM. B10 was tested, and the IC50 was > 1000 nM. With B11 the IC50 was > 1000 nM. B12 was tested, and the IC50 was > 1000 nM. With B13 the IC50 was > 1000 nM. In the case of B14, the IC50 is reported as > 500 nM. With B15 the IC50 was > 500 nM.

Target: T2, HIV-1 HXBc2 gp120
Experiment: SPR
Remark: another data set of the same source
B2 was tested, and the IC50 was 56.9 ± 13 nM. For B3, the IC50 was > 500 nM. For B4, the IC50 was > 360 nM. With B1 the IC50 was 69.5 ± 3.7 nM. Binder B5 has an IC50 of 66.7 ± 6.1 nM. For B6, the IC50 was > 500 nM.
